The results in this text go back to patent US20160159862A1 (PROTAGONIST THERAPEUTICS, published 2016).

B1: SEQ ID NO 30 (peptide)
peptide: Ac-[Pen][NMeR]SDTL[Pen][dF]E[dK]-NH2
modifications: disulfide 1-7 (inferred); also: homodimer via DIG linker
B2: SEQ ID NO 178 (peptide)
peptide: Palmitoyl-[Pen][NMeR]SDTL[Pen][Phe(4-tBu)][β3hE][dK]-NH2
modifications: disulfide 1-7 (inferred)
B3: SEQ ID NO 193 (peptide)
peptide: Ac-[Pen][NMeR]SDDL[Pen][Phe(4-tBu)][β3hE][dK]-NH2
modifications: disulfide 1-7 (inferred); also: homodimer via IDA, Alexa-647 label on IDA
B4: SEQ ID NO 172 (peptide)
peptide: Ac-[Pen][NMeR]SDTL[Pen][Phe(4-tBu)][b‑H‑E][dK]
modifications: disulfide 1-7 (inferred); not fully specified (residue 10); also: palmitoyl (palmitoyl chloride) attached after k
B5: SEQ ID NO 190 (peptide)
peptide: Ac-[Pen][NMeR]SQIQ[Pen][Phe(4-tBu)][β3hE][dK]-NH2
modifications: disulfide 1-7 (inferred); also: homodimer via IDA
B6: SEQ ID NO 171 (peptide)
peptide: Ac-[Pen][NMeR]SDTL[Pen][Phe(4-tBu)][b‑H‑E][dK]
modifications: disulfide 1-7 (inferred); not fully specified (residue 10); also: isovaleric acid attached after k
B7: SEQ ID NO 34 (peptide)
peptide: Ac-[Pen][NMeR]SDTL[Pen][d1Nal]E[dK]-NH2
modifications: disulfide 1-7 (inferred); also: homodimer via DIG linker
B8: SEQ ID NO 181 (peptide)
peptide: Myristoyl-[Pen][NMeR]SDTL[Pen][Phe(4-tBu)][β3hE][dK]-NH2
modifications: disulfide 1-7 (inferred)
B9: SEQ ID NO 35 (peptide)
peptide: Ac-[Pen][NMeR]SDTL[Pen][d2Nal]E[dK]-NH2
modifications: disulfide 1-7 (inferred); also: homodimer via DIG linker
B10: SEQ ID NO 176 (peptide)
peptide: Hexanoyl-[Pen][NMeR]SDTL[Pen][Phe(4-tBu)][b‑H‑E][dK]-NH2
modifications: disulfide 1-7 (inferred)
B11: SEQ ID NO 173 (peptide)
peptide: Ac-[Pen][NMeR]SDTL[Pen][Phe(4-tBu)][b‑H‑E][dK]
modifications: disulfide 1-7 (inferred); not fully specified (residue 10); also: lauroyl (lauroyl chloride) attached after k
B12: SEQ ID NO 36 (peptide)
peptide: Ac-C[NMeR]SDTL[Pen]W[dK]-NH2
modifications: disulfide 1-7 (inferred); also: homodimer via PEG13 linker
B13: SEQ ID NO 191 (peptide)
peptide: Ac-[Pen][NMeR]SDDL[Pen][Phe(4-tBu)][β3hE][dK]-NH2
modifications: disulfide 1-7 (inferred); also: homodimer via IDA
B14: SEQ ID NO 186 (peptide)
peptide: Ac-[Pen][NMeR]SDIL[Pen][Phe(4-tBu)][β3hE][dK]-NH2
modifications: disulfide 1-7 (inferred); also: homodimer via IDA
B15: SEQ ID NO 2 (peptide)
peptide: Ac-[Pen][NMeR]SDTL[Pen][dF][dE][dK]-NH2
modifications: disulfide 1-7 (inferred); also: homodimer via DIG
B16: SEQ ID NO 175 (peptide)
peptide: Ac-[Pen][NMeR]SDTL[Pen][Phe(4-tBu)][b‑H‑E][dK]
modifications: disulfide 1-7 (inferred); not fully specified (residue 10); also: myristoyl (myristoyl chloride) attached after k
B17: SEQ ID NO 31 (peptide)
peptide: Ac-[Pen][NMeR]SDTL[Pen]W[NMeE][dK]-NH2
modifications: disulfide 1-7 (inferred); also: homodimer via DIG linker
B18: SEQ ID NO 177 (peptide)
peptide: Isovaleryl-[Pen][NMeR]SDTL[Pen][Phe(4-tBu)][b‑H‑E][dK]-NH2
modifications: disulfide 1-7 (inferred)
B19: SEQ ID NO 189 (peptide)
peptide: Ac-[Pen][NMeR]SQIQ[Pen][Phe(4-tBu)][β3hE][dK]-NH2
modifications: disulfide 1-7 (inferred); also: homodimer via DIG
B20: SEQ ID NO 188 (peptide)
peptide: Ac-[Pen][NMeR]SDIL[Pen][Phe(4-tBu)][β3hE][dK]-NH2
modifications: disulfide 1-7 (inferred); also: homodimer via IDA, Alexa-647 label on IDA
B21: SEQ ID NO 192 (peptide)
peptide: Ac-[Pen][NMeR]SQIQ[Pen][Phe(4-tBu)][β3hE][dK]-NH2
modifications: disulfide 1-7 (inferred); also: homodimer via IDA, Alexa-647 label on IDA
B22: SEQ ID NO 179 (peptide)
peptide: Lauroyl-[Pen][NMeR]SDTL[Pen][Phe(4-tBu)][β3hE][dK]-NH2
modifications: disulfide 1-7 (inferred)
B23: SEQ ID NO 180 (peptide)
peptide: Oleoyl-[Pen][NMeR]SDTL[Pen][Phe(4-tBu)][β3hE][dK]-NH2
modifications: disulfide 1-7 (inferred)
B24: SEQ ID NO 187 (peptide)
peptide: Ac-[Pen][NMeR]SDTQ[Pen][Phe(4-tBu)][β3hE][dK]-NH2
modifications: disulfide 1-7 (inferred); also: homodimer via IDA
B25: SEQ ID NO 174 (peptide)
peptide: Ac-[Pen][NMeR]SDTL[Pen][Phe(4-tBu)][b‑H‑E][dK]
modifications: disulfide 1-7 (inferred); not fully specified (residue 10); also: oleoyl (oleoyl chloride) attached after k

Bridge positions count the residues as written; N and C are the ends. Square brackets hold non-standard residues; d marks the D form. Ends that are not written are not given here. * marks the point of attachment. Phe(4-tBu) = CC(C)(C)c1ccc(C[C@H](N)C(=O)O)cc1; d1Nal = N[C@H](Cc1cccc2ccccc12)C(=O)O; d2Nal = N[C@H](Cc1ccc2ccccc2c1)C(=O)O; Oleoyl = CCCCCCCC/C=C\CCCCCCCC(=O)*; NMeR = CN[C@@H](CCCNC(=N)N)C(=O)O; Palmitoyl = CCCCCCCCCCCCCCCC(=O)*; Myristoyl = CCCCCCCCCCCCCC(=O)*; NMeE = CN[C@@H](CCC(=O)O)C(=O)O; β3hE = N[C@@H](CCC(=O)O)CC(=O)O; Pen = CC(C)(S)[C@H](N)C(=O)O; Lauroyl = CCCCCCCCCCCC(=O)*; Isovaleryl = CC(C)CC(=O)*; Hexanoyl = CCCCCC(=O)*

The assay deals with α4β7 integrin on human cells (human, UniProt P13612 34-1032; P26010 20-798). Put plainly: cell-based or functional assay.
Regarding B1, the “α4β7 cell (Hu) IC50” value is > 0.1 µM.

Turning to B2, the “α4β7 cell (Hu) IC50” value was > 1 µM.

Regarding B3, the “α4β7 cell (Hu) IC50” value is > 100 µM.

In the case of B4, the “α4β7 cell (Hu) IC50” value amounted to 0.965 µM.

Consider B5, for which the “α4β7 cell (Hu) IC50” value is > 100 µM.

Consider B6, for which the “α4β7 cell (Hu) IC50” value was > 0.01 µM.

Consider B7, for which the “α4β7 cell (Hu) IC50” value is > 0.025 µM.

On to B8, for which the “α4β7 cell (Hu) IC50” value was > 1 µM.

Turning to B9, the “α4β7 cell (Hu) IC50” value is > 0.1 µM.

As for B10, the “α4β7 cell (Hu) IC50” value was > 0.05 µM.

As for B11, the “α4β7 cell (Hu) IC50” value is > 0.1 µM.

Regarding B12, the “α4β7 cell (Hu) IC50” value is > 0.05 µM.

B13: the “α4β7 cell (Hu) IC50” value was > 10 µM.

Turning to B14, the “α4β7 cell (Hu) IC50” value is > 0.1 µM.

With B15, the “α4β7 cell (Hu) IC50” value was > 0.1 µM.

As to B16, the “α4β7 cell (Hu) IC50” value was > 0.5 µM.

On to B17, for which the “α4β7 cell (Hu) IC50” value was > 0.05 µM.

As for B18, the “α4β7 cell (Hu) IC50” value was > 0.05 µM.

With B19, the “α4β7 cell (Hu) IC50” value was > 10 µM.

For the molecule B20, the “α4β7 cell (Hu) IC50” value was ≤ 0.01 µM.

As for B21, the “α4β7 cell (Hu) IC50” value is > 10 µM.

Consider B22, for which the “α4β7 cell (Hu) IC50” value is > 0.1 µM.

Consider B23, for which the “α4β7 cell (Hu) IC50” value is > 1 µM.

As for B24, the “α4β7 cell (Hu) IC50” value was > 0.1 µM.

Consider B25, for which the “α4β7 cell (Hu) IC50” value is > 1 µM.
